Source: patent publication CN114592010A

Biological target: NK细胞自身的IL-15受体(IL15Rβγ) (UniProt P14784)
Assay: cell-based or functional assay

UniProt P14784, sequence (P14784 27-551 limits assumed, chain 1 of 2): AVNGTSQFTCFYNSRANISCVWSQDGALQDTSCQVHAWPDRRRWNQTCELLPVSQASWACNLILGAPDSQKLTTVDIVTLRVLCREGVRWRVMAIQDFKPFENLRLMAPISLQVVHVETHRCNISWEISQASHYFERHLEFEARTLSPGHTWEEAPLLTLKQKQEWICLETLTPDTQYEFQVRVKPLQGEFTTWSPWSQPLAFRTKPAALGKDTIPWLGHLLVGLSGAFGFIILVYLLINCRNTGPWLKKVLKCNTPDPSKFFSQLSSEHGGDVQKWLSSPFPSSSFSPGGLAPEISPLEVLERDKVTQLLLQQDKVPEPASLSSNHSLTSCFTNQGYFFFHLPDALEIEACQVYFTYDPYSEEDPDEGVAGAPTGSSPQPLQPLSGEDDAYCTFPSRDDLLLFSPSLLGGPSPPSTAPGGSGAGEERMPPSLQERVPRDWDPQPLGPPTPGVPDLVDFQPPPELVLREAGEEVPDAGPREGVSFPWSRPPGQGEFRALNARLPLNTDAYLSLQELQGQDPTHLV
UniProt P14784, sequence (P31785 23-369 limits assumed, chain 2 of 2, further chain): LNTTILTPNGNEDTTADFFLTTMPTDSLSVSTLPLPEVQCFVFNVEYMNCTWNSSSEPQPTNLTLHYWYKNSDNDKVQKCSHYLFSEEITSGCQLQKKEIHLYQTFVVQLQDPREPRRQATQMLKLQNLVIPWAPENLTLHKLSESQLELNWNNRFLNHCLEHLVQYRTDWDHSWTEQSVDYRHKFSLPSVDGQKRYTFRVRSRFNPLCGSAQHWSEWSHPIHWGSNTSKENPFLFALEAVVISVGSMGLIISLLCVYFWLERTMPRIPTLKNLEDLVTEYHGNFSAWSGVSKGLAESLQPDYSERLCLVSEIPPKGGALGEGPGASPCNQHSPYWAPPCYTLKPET

增殖效果 (CCK8), NKMB cells = 实施例3 NK-CAR(NK-CAR)-MbIL-15, 1d (relative to 0d = 1): 1.66
增殖效果 (CCK8), NKMB cells = 实施例3 NK-CAR(NK-CAR)-MbIL-15, 2d (relative to 0d = 1): 2.37
增殖效果 (CCK8), NKMB cells = 实施例3 NK-CAR(NK-CAR)-MbIL-15, 3d (relative to 0d = 1): 2.83
增殖效果 (CCK8), NKMB cells = 实施例3 NK-CAR(NK-CAR)-MbIL-15, 4d (relative to 0d = 1): 4.12
增殖效果 (CCK8), TMB cells = 实施例4 NK-CAR(T-CAR)-MbIL-15, 1d (relative to 0d = 1): 1.67
增殖效果 (CCK8), TMB cells = 实施例4 NK-CAR(T-CAR)-MbIL-15, 2d (relative to 0d = 1): 2.7
增殖效果 (CCK8), TMB cells = 实施例4 NK-CAR(T-CAR)-MbIL-15, 3d (relative to 0d = 1): 3.63
增殖效果 (CCK8), TMB cells = 实施例4 NK-CAR(T-CAR)-MbIL-15, 4d (relative to 0d = 1): 7.77
Substance: 膜结合型IL-15 (IL-15-CD8 hinge-CD8 TM融合蛋白) (ligand)
